Measurements published in patent US20130123349A1.

Legend:
[1] = target: soluble collagen type I (pepsin-digested, non-fibrillar, triple helical; BD Biosciences) (human) (UniProt P02452); test: SPR, saliva injected over immobilized collagen type I for 120 sec at 20 µl/min
[2] = target: soluble collagen type III (pepsin-digested, non-fibrillar; BD Biosciences) (human) (UniProt P02461); test: SPR, saliva injected over immobilized collagen type III for 120 sec at 20 µl/min
[3] = target: collagen-related peptide (GPO)10, GCO-(GPO)10-GCOG-NH2, cross-linked; test: SPR, Aegyptin over immobilized cross-linked (GPO)10 peptide, two-state model
[4] = target: collagen-related peptide (GPO)10, GCO-(GPO)10-GCOG-NH2, cross-linked; test: SPR, Aegyptin over immobilized cross-linked (GPO)10 peptide, two-state model; Ka1
[5] = target: collagen-related peptide (GPO)10, GCO-(GPO)10-GCOG-NH2, cross-linked; test: SPR, Aegyptin over immobilized cross-linked (GPO)10 peptide, two-state model; Kd1
[6] = target: collagen-related peptide (GPO)10, GCO-(GPO)10-GCOG-NH2, cross-linked; test: SPR, Aegyptin over immobilized cross-linked (GPO)10, two-state model (text value; Table 4 prints 5.101 µM)

Chain of soluble collagen type III (pepsin-digested, non-fibrillar; BD Biosciences) (human) (P02461 168-1196): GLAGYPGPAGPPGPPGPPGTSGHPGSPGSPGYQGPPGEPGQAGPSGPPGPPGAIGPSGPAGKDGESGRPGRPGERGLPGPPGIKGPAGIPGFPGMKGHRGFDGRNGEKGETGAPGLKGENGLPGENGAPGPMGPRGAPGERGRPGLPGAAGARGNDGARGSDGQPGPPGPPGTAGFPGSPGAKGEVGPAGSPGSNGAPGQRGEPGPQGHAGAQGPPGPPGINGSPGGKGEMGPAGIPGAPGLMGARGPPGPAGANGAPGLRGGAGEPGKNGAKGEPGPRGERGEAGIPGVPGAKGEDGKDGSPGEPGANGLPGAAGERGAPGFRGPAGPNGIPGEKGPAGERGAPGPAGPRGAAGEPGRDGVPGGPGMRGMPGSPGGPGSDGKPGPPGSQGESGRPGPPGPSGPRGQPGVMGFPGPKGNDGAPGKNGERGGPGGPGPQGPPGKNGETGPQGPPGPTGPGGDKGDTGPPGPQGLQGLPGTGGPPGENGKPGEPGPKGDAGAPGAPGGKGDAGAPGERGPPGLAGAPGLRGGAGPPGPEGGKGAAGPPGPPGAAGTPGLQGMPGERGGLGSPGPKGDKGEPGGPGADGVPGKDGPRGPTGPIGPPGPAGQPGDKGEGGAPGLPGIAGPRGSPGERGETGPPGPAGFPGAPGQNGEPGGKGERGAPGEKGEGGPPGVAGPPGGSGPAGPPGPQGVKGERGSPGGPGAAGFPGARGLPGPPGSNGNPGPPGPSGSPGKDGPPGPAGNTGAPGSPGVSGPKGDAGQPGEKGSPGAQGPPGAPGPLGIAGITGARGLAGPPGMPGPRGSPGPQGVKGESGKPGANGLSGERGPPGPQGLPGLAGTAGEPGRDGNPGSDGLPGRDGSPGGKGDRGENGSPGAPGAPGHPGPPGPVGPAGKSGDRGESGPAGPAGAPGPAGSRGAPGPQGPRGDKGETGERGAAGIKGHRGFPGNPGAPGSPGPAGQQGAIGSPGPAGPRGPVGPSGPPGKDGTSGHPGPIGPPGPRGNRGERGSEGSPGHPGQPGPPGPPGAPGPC
Chain of soluble collagen type I (pepsin-digested, non-fibrillar, triple helical; BD Biosciences) (human) (P02452 179-1192 limits assumed, chain 1 of 2): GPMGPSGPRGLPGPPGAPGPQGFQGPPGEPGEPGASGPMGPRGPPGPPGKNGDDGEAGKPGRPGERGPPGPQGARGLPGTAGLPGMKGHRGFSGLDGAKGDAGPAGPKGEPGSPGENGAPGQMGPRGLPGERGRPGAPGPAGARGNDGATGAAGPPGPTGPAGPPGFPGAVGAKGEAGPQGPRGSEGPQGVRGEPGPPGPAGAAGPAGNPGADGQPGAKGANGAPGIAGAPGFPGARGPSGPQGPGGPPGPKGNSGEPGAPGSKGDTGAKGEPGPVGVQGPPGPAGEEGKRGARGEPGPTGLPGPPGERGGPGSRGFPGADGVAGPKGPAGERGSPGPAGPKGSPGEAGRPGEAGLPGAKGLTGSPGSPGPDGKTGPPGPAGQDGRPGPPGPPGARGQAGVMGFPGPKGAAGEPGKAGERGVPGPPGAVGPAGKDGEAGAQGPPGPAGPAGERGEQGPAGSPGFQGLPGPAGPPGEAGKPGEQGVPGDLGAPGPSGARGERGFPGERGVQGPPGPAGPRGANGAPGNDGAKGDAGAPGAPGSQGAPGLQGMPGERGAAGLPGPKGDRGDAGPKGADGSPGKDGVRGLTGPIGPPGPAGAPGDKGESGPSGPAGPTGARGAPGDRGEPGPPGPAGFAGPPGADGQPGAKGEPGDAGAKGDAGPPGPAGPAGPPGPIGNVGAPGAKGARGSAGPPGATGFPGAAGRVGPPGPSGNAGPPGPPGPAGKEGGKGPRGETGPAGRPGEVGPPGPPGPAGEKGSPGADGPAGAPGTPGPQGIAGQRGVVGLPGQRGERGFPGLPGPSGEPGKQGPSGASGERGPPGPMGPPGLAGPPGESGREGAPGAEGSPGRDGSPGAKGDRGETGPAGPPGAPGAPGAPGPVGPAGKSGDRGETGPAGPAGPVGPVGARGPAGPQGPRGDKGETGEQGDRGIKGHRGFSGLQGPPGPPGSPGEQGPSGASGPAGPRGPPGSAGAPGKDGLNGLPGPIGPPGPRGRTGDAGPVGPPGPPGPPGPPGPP
Chain of soluble collagen type I (pepsin-digested, non-fibrillar, triple helical; BD Biosciences) (human) (P08123 91-1104 limits assumed, chain 2 of 2, further chain): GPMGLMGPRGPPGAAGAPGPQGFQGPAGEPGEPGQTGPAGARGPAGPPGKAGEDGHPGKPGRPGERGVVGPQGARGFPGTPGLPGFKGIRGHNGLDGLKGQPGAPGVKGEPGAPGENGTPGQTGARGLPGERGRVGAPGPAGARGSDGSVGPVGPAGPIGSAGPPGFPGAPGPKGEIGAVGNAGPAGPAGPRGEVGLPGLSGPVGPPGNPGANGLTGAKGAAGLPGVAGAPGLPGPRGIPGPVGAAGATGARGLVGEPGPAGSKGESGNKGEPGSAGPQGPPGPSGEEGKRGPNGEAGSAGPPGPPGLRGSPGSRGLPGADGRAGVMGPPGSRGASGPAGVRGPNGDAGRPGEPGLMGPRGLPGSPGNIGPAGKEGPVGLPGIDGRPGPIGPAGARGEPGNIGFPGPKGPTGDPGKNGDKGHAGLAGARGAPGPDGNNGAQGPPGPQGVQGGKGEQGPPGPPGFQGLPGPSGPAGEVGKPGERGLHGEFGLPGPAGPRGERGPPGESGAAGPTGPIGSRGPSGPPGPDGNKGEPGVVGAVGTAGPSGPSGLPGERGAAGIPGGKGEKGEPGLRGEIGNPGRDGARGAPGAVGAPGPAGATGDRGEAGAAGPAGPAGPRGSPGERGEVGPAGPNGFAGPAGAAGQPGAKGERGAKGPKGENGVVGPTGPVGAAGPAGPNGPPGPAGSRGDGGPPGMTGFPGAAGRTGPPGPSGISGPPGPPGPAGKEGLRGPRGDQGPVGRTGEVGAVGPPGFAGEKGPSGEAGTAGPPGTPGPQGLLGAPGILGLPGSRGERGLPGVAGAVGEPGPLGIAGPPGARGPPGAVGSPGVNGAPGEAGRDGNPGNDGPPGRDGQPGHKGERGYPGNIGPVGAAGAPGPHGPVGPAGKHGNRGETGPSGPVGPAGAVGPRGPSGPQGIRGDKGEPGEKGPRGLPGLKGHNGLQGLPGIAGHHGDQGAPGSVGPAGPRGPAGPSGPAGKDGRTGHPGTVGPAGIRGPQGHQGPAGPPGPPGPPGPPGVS

Substance	Response (RU) [1] [RU]	Response (RU) [2] [RU]	Kd [3] [µM]	Kd2 (two-state model) [3] [s⁻¹]	second Ka of the two-state model [3] [M⁻¹ s⁻¹]	kon [4] [M⁻¹ s⁻¹]	koff [5] [s⁻¹]	Kd [6] [µM]
Ae. aegypti saliva (0.07 µg/ml)	556	348						
recombinant Aegyptin (from UniProt O01949 20-273)			5.1	0.0289	0.00402	206000	1.19	5.01
